From patent publication US20240158497A1 (published 2024)

T1: mutant human LEPR (Y1141F) on HEK293.STAT3.Luc.GP130.hLEPR (Y1141F) cells (human, UniProt P48357 22-1165)
T1 sequence (looked up): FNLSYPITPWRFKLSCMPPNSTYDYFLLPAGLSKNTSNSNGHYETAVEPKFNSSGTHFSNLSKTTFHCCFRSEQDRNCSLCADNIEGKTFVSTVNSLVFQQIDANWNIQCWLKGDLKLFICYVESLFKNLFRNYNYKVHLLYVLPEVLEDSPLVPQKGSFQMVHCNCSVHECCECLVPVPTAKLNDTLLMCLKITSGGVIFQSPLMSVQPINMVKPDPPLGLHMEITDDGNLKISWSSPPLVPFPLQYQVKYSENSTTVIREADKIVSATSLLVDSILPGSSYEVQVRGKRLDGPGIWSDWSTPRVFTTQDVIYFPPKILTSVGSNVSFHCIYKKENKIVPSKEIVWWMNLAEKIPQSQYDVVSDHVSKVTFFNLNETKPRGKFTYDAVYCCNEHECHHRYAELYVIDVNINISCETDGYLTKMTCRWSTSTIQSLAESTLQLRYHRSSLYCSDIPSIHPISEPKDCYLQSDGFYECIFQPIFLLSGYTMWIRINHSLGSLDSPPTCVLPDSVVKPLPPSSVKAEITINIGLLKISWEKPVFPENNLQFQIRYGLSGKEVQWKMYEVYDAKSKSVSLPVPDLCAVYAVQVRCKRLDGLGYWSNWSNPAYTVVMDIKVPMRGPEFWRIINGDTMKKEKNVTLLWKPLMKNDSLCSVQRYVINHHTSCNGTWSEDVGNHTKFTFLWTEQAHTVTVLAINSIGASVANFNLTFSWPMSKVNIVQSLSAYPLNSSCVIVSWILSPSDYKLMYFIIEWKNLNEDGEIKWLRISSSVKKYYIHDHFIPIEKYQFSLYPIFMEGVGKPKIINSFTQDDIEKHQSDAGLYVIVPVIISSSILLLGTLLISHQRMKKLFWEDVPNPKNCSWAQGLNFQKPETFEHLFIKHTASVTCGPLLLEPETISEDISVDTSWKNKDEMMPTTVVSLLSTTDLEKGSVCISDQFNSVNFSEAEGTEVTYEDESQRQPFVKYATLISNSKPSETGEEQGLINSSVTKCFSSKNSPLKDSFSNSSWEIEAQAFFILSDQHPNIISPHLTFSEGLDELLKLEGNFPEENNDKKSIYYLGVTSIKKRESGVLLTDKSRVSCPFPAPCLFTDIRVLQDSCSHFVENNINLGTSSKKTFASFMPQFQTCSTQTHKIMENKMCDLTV

T2: extracellular domain of human LEPR, GPI-anchored, on HEK293/hLEPR-GPI cells (human, UniProt P48357 22-839, GPI anchor at the C-terminus ; GPI anchor at the C-terminus, added through the carboxypeptidase M signal peptide. The N-terminal myc-myc tag is not written.)
T2 sequence: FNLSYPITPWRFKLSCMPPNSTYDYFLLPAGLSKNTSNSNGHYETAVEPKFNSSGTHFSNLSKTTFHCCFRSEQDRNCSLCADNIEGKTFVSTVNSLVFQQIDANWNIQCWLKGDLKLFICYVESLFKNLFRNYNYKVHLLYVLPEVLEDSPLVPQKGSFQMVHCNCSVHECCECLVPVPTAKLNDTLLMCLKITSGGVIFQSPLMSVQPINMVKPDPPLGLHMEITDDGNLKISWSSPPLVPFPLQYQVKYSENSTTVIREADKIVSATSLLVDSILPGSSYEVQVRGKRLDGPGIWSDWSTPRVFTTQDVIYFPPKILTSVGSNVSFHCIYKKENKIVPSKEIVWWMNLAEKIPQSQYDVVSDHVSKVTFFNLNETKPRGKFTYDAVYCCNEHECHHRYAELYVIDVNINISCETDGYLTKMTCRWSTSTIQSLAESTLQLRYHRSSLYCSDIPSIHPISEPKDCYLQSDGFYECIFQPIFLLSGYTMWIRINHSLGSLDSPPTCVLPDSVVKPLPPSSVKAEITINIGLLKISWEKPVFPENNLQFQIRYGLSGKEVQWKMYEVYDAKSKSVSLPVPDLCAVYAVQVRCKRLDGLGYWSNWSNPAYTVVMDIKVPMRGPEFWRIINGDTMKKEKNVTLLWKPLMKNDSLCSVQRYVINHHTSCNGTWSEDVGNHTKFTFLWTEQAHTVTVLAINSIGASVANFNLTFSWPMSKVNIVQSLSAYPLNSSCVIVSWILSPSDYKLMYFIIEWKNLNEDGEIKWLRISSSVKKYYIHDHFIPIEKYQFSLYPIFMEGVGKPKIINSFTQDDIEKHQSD


Key:
[1] = target: T1, mutant human LEPR (Y1141F) on …; test: cell-based or functional assay
[2] = target: T2, extracellular domain of human LEPR, …; test: FACS, 200 nM antibody on HEK293/hLEPR-GPI cells, no Leptin
Protocol: For the FACS analysis, 0.5×10^6 cells/well of HEK293 parental cells, HEK293/Stat3-luc/gp130-2 X Sort cells, and HEK293/hLEPR-GPI cells, were incubated with 200 nM of the conventional antibodies against either GP130 or LEPR or with LEPRxGP130 bispecific antibodies, along with isotype control antibodies at 4° C. in PBS (without calcium and magnesium) containing 2% FBS.
Cells were fixed using BD CytoFix™ (Becton Dickinson, #554655) and analyzed on an IQue® (Intellicyt) Flow Cytometer. Unstained and secondary antibody alone controls were also tested for all cell lines. The results were analyzed using ForeCyt® (IntelliCyt) and FlowJo version 10 softwares to determine the geometric means of fluorescence for viable cells.

Row | Binder | EC50 (M), STAT3-luciferase activation of HEK293.STAT3.Luc.GP130.hLEPR (Y1141F) cells, 10 nM leptin [1] [M] | Binding Ratio, normalized to unstained sample (FL4-A) [2] [fold]
1 | bsAb21236D (bispecific antibody, V domains shown, LEPR x GP130 bispecific with common light chain; also called H4H21236D; bsAb21236 (LEPR × GP130)) VH 1: QVQLQESGPGLVKPSQTLSLTCTVSGGSISSGGDYWSWIRQLPGKGLEWIGYIYYSGSAYYNPSLKSRGTISIDTSKNQFSLKLTSVTAADTAVYFCVKLRFLEWFLGGWFGPWGQGTLVTVSS VH 2: QVQLVESGGGLVKPGGSLRLSCAASGFTFSDYYMTWIRQTPGKGLDWVSYISSSGTNKYNADSVKGRFTISRDNAKNSLYLQMNSLRAEDTAVYYCVRDPPWGMDVWGQGTTVTVSS VL: not shown | 2.11e-09 | 4420
2 | bsAb21237D (bispecific antibody, V domains shown, LEPR x GP130 bispecific with common light chain; also called H4H21237D; bsAb21237 (LEPR × GP130)) VH 1: EVQLVESGGGLVQPGGSLRLSCAASGFTFSNYGMTWVRQAPGKGLEWVSAITGGGGSTYYSNSVKGRFTISRDNSKNTVYLRMNSVRAEDTAVYYCAKYKWNFVDDWGQGTTVTVSS VH 2: QVQLVESGGGLVKPGGSLRLSCAASGFTFSDYYMTWIRQTPGKGLDWVSYISSSGTNKYNADSVKGRFTISRDNAKNSLYLQMNSLRAEDTAVYYCVRDPPWGMDVWGQGTTVTVSS VL: not shown | 2.46e-09 | 6320
